{"source": "patent US20100305034A1", "about": "(UNIVERSITY OF BRISTOL, published 2010)", "proteins": {"B1": {"name": "VEGF165b (recombinant, produced by transfected HEK293 cells) (ligand)", "chain": "APMAEGGGQNHHEVVKFMDVYQRSYCHPIETLVDIFQEYPDEIEYIFKPSCVPLMRCGGCCNDEGLECVPTEESNITMQIMRIKPHQGQHIGEMSFLQHNKCECRPKKDRARQENPCGPCSERRKHLFVQDPQTCKCSCKNTDSRCKARQLELNERTCRSLTRKD", "notes": "Secreted into conditioned medium of HEK293 cells stably transfected with pcDNA3-VEGF165b; mostly glycosylated (about 23 kDa); also called VEGF165b-CM; new isoform VEGF165b"}}, "target": "the molecule itself", "assay": "Western blot of conditioned media from transfected HEK293 cells", "protocol": "Full length VEGF₁₆₅b or VEGF₁₆₅ (generated by PCR from tissue) was cloned into the expression vector pcDNA₃ using standard methodology, and then transfected into HEK 293 cells and a stable cell line generated using Geneticin selection. Confluent cells were incubated in basal M200 endothelial cell medium for 48 hours, containing neither serum nor Geneticin, and the conditioned media assayed for VEGF concentration using a pan VEGF ELISA(R&D). Control conditioned media (pcDNA3-CM) was collected in the same way from HEK293 cells stably transfected with pcDNA₃. […] VEGF₁₆₅b was the same molecular weight as VEGF₁₆₅, and both isoforms correspond to previously published molecular weights for VEGF₁₆₅ (Ferrara N et al Biophys. Res. Comm. 1989; 161: 851-8). […] This is probably due to the fact that commercially available VEGF₁₆₅ is not glycosylated. There was some VEGF₁₆₅b and VEGF₁₆₅ in the conditioned media that appeared to be de-glycosylated, but this was a small fraction of the total VEGF."}
{"protein": "B1", "values": [{"measurement": "binding result", "result": "binds"}]}
